Measured values taken from patent publication US20080176793A1, “UPREGULATING ACTIVITY OR EXPRESSION OF BDNF TO MITIGATE COGNITIVE IMPAIRMENT IN ASYMPTOMATIC HUNTINGTON'S SUBJECTS” (THE REGENTS OF THE UNIVERSITY OF CALIFORNIA, priority 2006, published 2008).

Experiments:
Type in all cases: cell-based
[1] = tested on: hippocampal slices from Hdh^Q111 mice; assay: TBS-induced long-term potentiation (fEPSP slope) in acute hippocampal slices, field CA1
Experimental: (§1) Acute hippocampal slices were prepared, as described elsewhere (Kramar et al. (2004) J. Neurosci. 24: 5151-5161), from 8 week old Hdh^Q111, 24 week old Hdh^Q92 and age-matched WT mice and maintained at 32° C. in an interface chamber of local design. Synaptic responses (fEPSPs) were generated by stimulating the Schaffer-commissural afferents to the apical dendrites of field CA1b pyramidal cells using stimulating electrodes positioned in fields CA1a and CA1c. For baseline recording, fEPSPs were set to 30% of the maximum responses and low frequency stimulation (3 pulses/min) was delivered. The slope of the descending phase of the fEPSP was used as a measure of response size with all values normalized to a 15 min baseline period collected 1-2 h after slice preparation. LTP was induced with a single TBS train (ten bursts of 4 pulses at 100 Hz, inter-burst interval of 200 ms). BDNF (2 nM) was prepared and delivered to slices as described previously (Menalled (2005) NeuroRx 2: 465-470).
(§2) For all electrophysiology experiments, results are summarized in the text as a percent increase in responses from baseline. Data are presented as mean ±s.d. in the text and mean ±s.e.m. in the figures.

[2] = tested on: hippocampal slices from Hdh^Q111 mice; assay: In situ rhodamine-phalloidin labeling of F-actin (TBS-induced actin polymerization in dendritic spines); details: BDNF 2 nM, Hdh^Q111 slices after TBS, n=13, mean ±s.d.
Experimental: Physiological recording and delivery of TBS or low frequency stimulation was performed as described above. Starting 20 min after TBS, rhodamine-phalloidin (6 μM/2-4 μl; from Sigma, St. Louis, Mo., or Invitrogen, Carlsbad, Calif.) was applied topically (Kramar et al. (2006) Proc. Natl. Acad. Sci., USA, 103: 5579-5784) via micropipette 3 times separated by 3 min. To test the effects of BDNF on actin polymerization, BDNF (2 nM) or artificial cerebral spinal fluid was delivered to WT and Hdh^Q111 slices via a reperfusion pump system (Cole-Palmer, Vernon Hills, Ill.) at 1 ml/min 1-2 h before recording. […]
Sections were examined with epifluorescence illumination using an Olympus AX70 photomicroscope. Quantitative analyses were carried out on three serial sections situated 20 to 80 μm below the surface of original slice. […] These images were then converted to grayscale and intensity levels were cropped at values determined for each experiment to visualize low-intensity labeling.
Labeled spine-like structures were measured and counted from a 550 μm^2 sampling zone in the proximal stratum radiatum between the two stimulating electrodes using in-house software described in detail previously (Kramar et al. (2006) Proc. Natl. Acad. Sci., USA, 103: 5579-5784; Lin et al. (2005) J. Neurosci. 25: 2062-2069). […]

[3] = tested on: hippocampal slices from Hdh^Q111 mice; assay: Within-train facilitation of theta burst responses in hippocampal slices; details: BDNF-treated Hdh^Q111 slices
Description: Events that occur during the two-second period of TBS can potently influence the threshold, initial expression, magnitude, and stability of LTP (Arai and Lynch (1992) Eur. J. Neurosci. 4: 411-419; Larson et al. (1986) Brain Res. 368: 347-350). […] In marked contrast, the facilitation of the second and subsequent burst responses, each a composite of four closely spaced fEPSPs, was greatly attenuated in Hdh^Q111 slices (FIG. 2, panel a, e.g. burst 4). The facilitation effect was quantified by expressing the areas of burst responses 2-10 as fractions of the area of the first burst response.
as §1, §2

B1: BDNF: the neurotrophin, Brain-Derived Neurotrophic Factor, delivered at 2 nM to hippocampal slices (protein, UniProt P23560 19-247, looked up)
Neurotrophic factor BDNF …: APMKEANIRGQGGLAYPGVRTHGTLESVNGPKAGSRGLTSLADTFEHVIEELLDEDQKVRPNEENNKDADLYTSRVMLSSQVPLEPPLLFLLEEYKNYLDAANMSMRVRRHSDPARRGELSVCDSISEWVTAADKKTAVDMSGGTVTVLEKVPVSKGQLKQYFYETKCNPMGYTKEGCRGIDKRHWNSQCRTTQSYVRALTMDSKKRIGWRFIRIDTSCVCTLTIKRGR
B1 was tested, and the “effect on baseline transmission” value ([1]; BDNF 2 nM infused for 60 min, Hdh^Q111 or WT slices) was “did not detectably change baseline transmission”, the “LTP compared with WT slices” value ([1]; BDNF 2 nM, Hdh^Q111 slices (FIG. 7, panel a)) was “not detectably different from WTs” and the “percent potentiation 45 min after TBS” value ([1]; BDNF 2 nM, Hdh^Q111 slices, mean ±s.d.) was 43.6±23.5%. For the same molecule, the “LTP at 20 min post-TBS (percent increase in responses from baseline)” value ([1]; BDNF 2 nM, Hdh^Q111 slices, n=11, mean ±s.d.) was 59.9±28.3%, the “potentiation at end of 60 min post-TBS recording” value ([1]; BDNF 2 nM, subgroup of Hdh^Q111 slices, n=4) was “stable potentiation was present at the end of recording” and the “number of phalloidin-labeled spines in the high-intensity bins” value [2] was 40.5±39.3 per 550 μm^2. For the same molecule, the “effect on responses to stimulation bursts in the theta train” value [3] was “did not facilitate responses to any stimulation burst”, the “burst 9 greater than burst 1” value ([3]; mean ±s.d.) was −5.8±9.3% and the “Facilitation of the second burst response” value ([3]; relative to burst 1, mean ±s.d.) was 46.1±10.2%.
